Patent US4770993A, “Hybridoma tumor cell lines and their monoclonal antibodies to thaumatin” (Beatrice Companies, Inc., priority 1985, dated 1988)

Tests used:
[1] = tested on: monoclonal antibody of clone No. 29; test: Competition assay between native plant thaumatin I and monellin, clone No. 29 antibody; type: binding, mouse
[2] = in words; cited from earlier work
[3] = tested on: clone No. 29 monoclonal antibodies; test: Competition ELISA, inhibition of binding of clone No. 29 monoclonal antibodies to native plant thaumatin I; set-up: species or system mouse
Description: (§1) The following procedure is utilized to carry out enzyme linked immunosorbance assays (ELISA) for thaumatin. All reactions are carried out at room temperature and the ELISA plate is covered with Saran brand plastic wrap at all stages and is incubated within a humidified chamber. ELISA plates are coated by placing 10 ng of thaumatin I purified according to the procedure of example 1 in 50 μl of 25 mM NaHCO3 (pH 9.2). This is incubated at room temperature for 2 hours. The plates are washed twice with 400 μl of PBS (50 mM potassium phosphate, 150 mM NaCl, (pH 7.4) and Tween 20 (0.05%)) (a detergent manufactured by Sigma Chemical Co.) and then twice with 400 μl water. The plates are then coated with 200 μl of 1% bovine serum albumin (BSA) in PBS-Tween 20 (0.025% solution) for 2 hours at room temperature. The plates are again washed twice with 400 μl of the PBS-Tween solution and twice with water.
Fifty μl of media from the culture to be tested is then added. Normal, unfused myeloma cell (Sp2-0/Ag-14) media is used as the negative control. […] The media is then incubated for at least four hours at room temperature. The plates are then again washed twice with 400 μl of PBS-Tween 20 solution and then twice with water. Fifty μl of a 1:100 dilution of rabbit anti-mouse light K and λ chain immunoglobulin is added and this is incubated for 2 hours at room temperature. The plates are again washed twice with 400 μl of 0.5% PBS-Tween 20 solution and twice with water. Fifty μl of conjugated goat anti-rabbit IgG peroxidase at a 1:1000 dilution is then added and incubated for 1 hour at room temperature. The plates are once more washed twice with 400 μl PBS-Tween 20 solution and twice with water.
(§2) Fifty μl of O-phenylenediamine dihydrochloride (OPD) solution containing 0.01% of H2 O2 is added to each well (OPD solution comprises 18 mg of OPD per 30 ml of staining buffer which itself comprises 4.86 ml of 0.5 M citric acid and 10.28 ml of 0.5 M Na2 HPO4 diluted up to 100 ml with water). The H2 O2 should be added to the OPD only seconds before application. This mixture is then incubated for 5-15 minutes at room temperature until the reaction is stopped by addition of 50 μl of 4N H2 SO4. The optical density of the wells is then measured at 490 nm by a Bio-Tek ELISA reader.
(§3) In this example inhibition effect of recombinant yeast produced thaumatin analogue-glutathione adduct and of performic acid oxidized thaumatin on binding of clone No. 29 monoclonal antibodies to native plant thaumatin I was evaluated. ELISA plates were coated with 10 ng of native plant thaumatin I per well. The antibodies were preincubated with control buffer or with various amounts of test materials for 2 hours and were added to the plates. The plates were then developed according to the ELISA procedure of Example 3.

[4] = tested on: clone No. 3 monoclonal antibodies; test: Competition ELISA, inhibition of binding of clone No. 3 monoclonal antibodies to native plant thaumatin I; set-up: species or system mouse
Description: as §1
Fifty μl of media from the culture to be tested is then added. Normal, unfused myeloma cell (Sp2-0/Ag-14) media is used as the negative control. Mouse serum at a dilution of 1:500 or greater is used as a positive control. The media is then incubated for at least four hours at room temperature. The plates are then again washed twice with 400 μl of PBS-Tween 20 solution and then twice with water. Fifty μl of a 1:100 dilution of rabbit anti-mouse light K and λ chain immunoglobulin is added and this is incubated for 2 hours at room temperature. The plates are again washed twice with 400 μl of 0.5% PBS-Tween 20 solution and twice with water. Fifty μl of conjugated goat anti-rabbit IgG peroxidase at a 1:1000 dilution is then added and incubated for 1 hour at room temperature. The plates are once more washed twice with 400 μl PBS-Tween 20 solution and twice with water.
as §2
as §3, with “example, the” for “example”, “oxidized plant” for “oxidized”, “3” for “29”

[5] = cited from earlier work; for taste responses: in words

Monellin
Inhibition (%) ([1]; amount of protein 10 ng): not detectable
Inhibition (%) ([1]; amount of protein 50 ng): not detectable
Inhibition (%) ([1]; amount of protein 100 ng): not detectable
Inhibition (%) ([1]; amount of protein 1 μg): 15%
Inhibition (%) ([1]; amount of protein 10 μg): 60%
Inhibition (%) ([1]; amount of protein 100 μg): 98%
concentration inhibiting binding relative to thaumatin ([1]; monellin versus thaumatin): ten fold greater

B1: Thaumatin I: plant thaumatin I (obtained from Sigma Chemical Co.), sweet-tasting protein of Thaumatococcus daniellii, purified on an ion exchange column (protein, UniProt P02883 23-229, looked up)
Thaumatin I: ATFEIVNRCSYTVWAAASKGDAALDAGGRQLNSGESWTINVEPGTNGGKIWARTDCYFDDSGSGICKTGDCGGLLRCKRFGRPPTTLAEFSLNQYGKDYIDISNIKGFNVPMDFSPTTRGCRGVRCAADIVGQCPAKLKAPGGGCNDACTVFQTSEYCCTTGKCGPTEYSRFFKRLCPDAFSYVLDKPTTVTCPGSSNYRVTFCPTA
cariogenicity [2]: non-cariogenic
toxicity [2]: non-toxic
Inhibition of Binding (%) ([3]; addition 100 ng): 5%
Inhibition of Binding (%) ([3]; addition 200 ng): 30%
Inhibition of Binding (%) ([3]; addition 500 ng): 51%
Inhibition of Binding (%) ([3]; addition 1 μg): 65%
Inhibition of Binding (%) ([3]; addition 2 μg): 80%
Inhibition (%) ([1]; amount of protein 10 ng): not detectable
Inhibition (%) ([1]; amount of protein 50 ng): not detectable
Inhibition (%) ([1]; amount of protein 100 ng): 25%
Inhibition (%) ([1]; amount of protein 1 μg): 62.5%
Inhibition (%) ([1]; amount of protein 10 μg): 94%
Inhibition (%) ([1]; amount of protein 100 μg): 95%
Inhibition of Binding (%) ([4]; addition 100 ng): 16%
Inhibition of Binding (%) ([4]; addition 200 ng): 30%
Inhibition of Binding (%) ([4]; addition 500 ng): 50%
Inhibition of Binding (%) ([4]; addition 1 μg): 60%
Inhibition of Binding (%) ([4]; addition 2 μg): 80%
taste responses [5]: elicit profound taste responses
sweetness relative to sucrose ([5]; on a weight basis): about 5000 times sweeter than sucrose

B2: Performic acid oxidized thaumatin: denatured thaumatin I prepared by incubation of thaumatin I in a chilled performic acid solution (protein, UniProt P02883 23-229, looked up)
Thaumatin I: ATFEIVNRCSYTVWAAASKGDAALDAGGRQLNSGESWTINVEPGTNGGKIWARTDCYFDDSGSGICKTGDCGGLLRCKRFGRPPTTLAEFSLNQYGKDYIDISNIKGFNVPMDFSPTTRGCRGVRCAADIVGQCPAKLKAPGGGCNDACTVFQTSEYCCTTGKCGPTEYSRFFKRLCPDAFSYVLDKPTTVTCPGSSNYRVTFCPTA
modifications: performic acid oxidized
notes: denatured thaumatin I prepared by incubation of thaumatin I in a chilled performic acid solution
Inhibition of Binding (%) ([3]; addition 100 ng): 8%
Inhibition of Binding (%) ([3]; addition 200 ng): 29.5%
Inhibition of Binding (%) ([3]; addition 500 ng): 49%
Inhibition of Binding (%) ([3]; addition 1 μg): 64%
Inhibition of Binding (%) ([3]; addition 2 μg): 82%
competition with native plant thaumatin I for clone No. 29 antibody ([3]; in words): compete effectively
Inhibition of Binding (%) ([4]; addition 100 ng): 0%
Inhibition of Binding (%) ([4]; addition 200 ng): 0%
Inhibition of Binding (%) ([4]; addition 500 ng): 0%
Inhibition of Binding (%) ([4]; addition 1 μg): 0%
Inhibition of Binding (%) ([4]; addition 2 μg): 6%
inhibition in the assay ([4]; preincubation with clone No. 3 antibody, in words): little or no inhibition

B3: Thaumatin II: plant thaumatin II, sweet-tasting protein of Thaumatococcus daniellii (protein, UniProt P02884 23-229, looked up)
Thaumatin II: ATFEIVNRCSYTVWAAASKGDAALDAGGRQLNSGESWTINVEPGTKGGKIWARTDCYFDDSGRGICRTGDCGGLLQCKRFGRPPTTLAEFSLNQYGKDYIDISNIKGFNVPMDFSPTTRGCRGVRCAADIVGQCPAKLKAPGGGCNDACTVFQTSEYCCTTGKCGPTEYSRFFKRLCPDAFSYVLDKPTTVTCPGSSNYRVTFCPTA
cariogenicity [2]: non-cariogenic
toxicity [2]: non-toxic
taste responses [5]: elicit profound taste responses
